Where two headings read alike, the source gives them in different places. Numbered stars: 1 amine (or outer) side, 2 acyl side, 3 side chain; on linkers, the order of the positions; unused ones are H or OH. Square brackets hold non-standard residues; d marks the D form. Side chains are listed from the residue outwards. Peptide text beside a SMILES is read from it. * marks the point of attachment. γGlu = O=C(O)[C@H](CCC(=O)[*:2])N[*:1]; Stearoyl = CCCCCCCCCCCCCCCCCC(=O)*; Palmitoyl = CCCCCCCCCCCCCCCC(=O)*; Aib = CC(C)(N)C(=O)O
Legend:
human GIP R = molecular target: T1, human GIP R (Homo sapiens, UniProt P48546); test: cAMP induction in HEK293 cells expressing human GIP R (AlphaScreen cAMP kit); assay type: cell-based; settings: GIP R (EC50 in nM)
T1 construct: expressed in transfected cells
T1 sequence (P48546 22-466): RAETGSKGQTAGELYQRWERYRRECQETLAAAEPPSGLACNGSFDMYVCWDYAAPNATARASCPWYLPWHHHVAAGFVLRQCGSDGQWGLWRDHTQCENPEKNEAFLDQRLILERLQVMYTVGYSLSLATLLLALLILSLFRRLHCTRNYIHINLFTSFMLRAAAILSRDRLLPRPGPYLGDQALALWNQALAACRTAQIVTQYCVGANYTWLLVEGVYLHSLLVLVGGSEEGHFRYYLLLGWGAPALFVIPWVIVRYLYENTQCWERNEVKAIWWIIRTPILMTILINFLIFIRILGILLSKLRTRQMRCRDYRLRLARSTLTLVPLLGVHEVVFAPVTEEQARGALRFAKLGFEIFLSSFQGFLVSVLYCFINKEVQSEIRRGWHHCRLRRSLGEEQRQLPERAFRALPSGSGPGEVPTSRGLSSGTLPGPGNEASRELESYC
Method: (§1) Briefly, HEK293 cells expressing the human GIP R, GLP-1 R or GCG R (stable cell lines generated through transfection of the cDNA for human GIP R, GLP-1 R or GCG R and selection of stable clones) were seeded at 30,000 cells/well in 96-well microtiter plates coated with 0.01% poly-L-lysine, and grown for 1 day in culture in 200 μl growth medium (DMEM, 10% FCS, Penicillin (100 IU/ml), Streptomycin (100 μg/ml)). On the day of analysis, growth medium was removed and the cells were washed once with 150 μl Tyrode's buffer (Tyrode's Salts (9.6 g/l), 10 mM HEPES, pH 7.4). […] The Assay buffer was removed and cells are lysed in 80 μl Lysis buffer (0.1% w/v BSA, 5 mM HEPES, 0.3% v/v Tween-20) per well. From each well 10 μl of lysed cells were transferred to a 384-well plate and mixed with 15 μl bead-mix (1 Unit/15 μl anti-cAMP Acceptor Beads, 1 Unit/15 μl Donor Beads, and 1 Unit/15 μl Biotinylated cAMP in Assay Buffer). The plates were mixed and incubated in the dark for an hour at room temperature before measuring using an Envision™ plate reader (Perkin-Elmer).
(§2) The resulting cAMP curves were plotted as absolute cAMP concentrations (nM) over log (test compound concentration) and analyzed using the curve fitting program XLfit.
(§3) Parameters calculated to describe both the potency as well as the agonistic activity of each test compound on the receptors were:
(§4) EC50, a concentration resulting in a half-maximal elevation of cAMP levels, reflecting the potency of the test compound.

human GCG R = molecular target: T2, human GCG R (Homo sapiens, UniProt P47871); test: cAMP induction in HEK293 cells expressing human GCG R (AlphaScreen cAMP kit); assay type: cell-based
T2 construct: expressed in transfected cells

human GLP-1 R = molecular target: T3, human GLP-1 R (Homo sapiens, UniProt P43220); test: cAMP induction in HEK293 cells expressing human GLP-1 R (AlphaScreen cAMP kit); assay type: cell-based; settings: average EC50, cAMP, HEK293 cells expressing human GLP-1 R, read-out: GLP1 R (EC50 in nM)
T3 construct: expressed in transfected cells
Method: as §1, §2, §3, §4

human glucagon receptor [1] = molecular target: T4, human glucagon receptor (human, UniProt P47871 26-477); test: cell-based or functional assay
human GIP receptor [2] = molecular target: T5, human GIP receptor (human, UniProt P48546 22-466); test: cell-based or functional assay
T5 sequence: T1 sequence (P48546 22-466)

[3] = molecular target: T6, human glucagon-like peptide 1 receptor (human, UniProt P43220 24-463); test: cell-based or functional assay
human glucagon receptor [4] = molecular target: T4, human glucagon receptor; test: cell-based or functional assay; remark: listed apart in the source
human GIP receptor [5] = molecular target: T5, human GIP receptor; test: cell-based or functional assay; remark: listed apart in the source
[6] = molecular target: T6, human glucagon-like peptide 1 receptor; test: cell-based or functional assay; remark: listed apart in the source

T4 sequence (P47871 26-477): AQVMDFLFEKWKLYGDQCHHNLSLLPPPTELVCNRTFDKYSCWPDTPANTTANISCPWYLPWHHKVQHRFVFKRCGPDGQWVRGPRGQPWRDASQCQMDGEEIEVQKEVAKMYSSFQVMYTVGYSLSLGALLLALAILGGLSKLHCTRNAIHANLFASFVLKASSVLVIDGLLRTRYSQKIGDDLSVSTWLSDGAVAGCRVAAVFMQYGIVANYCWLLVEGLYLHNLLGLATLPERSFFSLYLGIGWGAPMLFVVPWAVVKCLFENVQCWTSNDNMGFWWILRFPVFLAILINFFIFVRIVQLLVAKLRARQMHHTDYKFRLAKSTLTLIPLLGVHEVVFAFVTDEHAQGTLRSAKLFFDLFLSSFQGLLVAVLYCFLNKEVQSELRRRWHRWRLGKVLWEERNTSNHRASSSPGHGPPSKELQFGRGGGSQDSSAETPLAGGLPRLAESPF
T3 sequence (P43220 24-463): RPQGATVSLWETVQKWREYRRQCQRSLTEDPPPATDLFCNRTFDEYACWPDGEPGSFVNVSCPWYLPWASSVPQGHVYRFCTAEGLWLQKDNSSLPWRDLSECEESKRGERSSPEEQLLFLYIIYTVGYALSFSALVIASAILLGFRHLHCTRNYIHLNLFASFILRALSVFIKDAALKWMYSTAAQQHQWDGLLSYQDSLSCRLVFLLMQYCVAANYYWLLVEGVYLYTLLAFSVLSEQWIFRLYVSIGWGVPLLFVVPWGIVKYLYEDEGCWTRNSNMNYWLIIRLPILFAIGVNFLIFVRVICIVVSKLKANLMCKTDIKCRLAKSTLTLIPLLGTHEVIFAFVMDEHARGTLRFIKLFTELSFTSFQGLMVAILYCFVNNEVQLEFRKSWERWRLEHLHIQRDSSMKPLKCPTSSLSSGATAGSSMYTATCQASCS
T2 sequence (P47871 26-477): as the sequence (P47871 26-477) above

Molecule: CCCCCCCCCCCCCCCC(=O)N[C@@H](CCC(=O)NCCCC[C@H](NC(=O)[C@H](CCC(=O)O)NC(=O)[C@H](CC(C)C)NC(=O)[C@H](Cc1ccc(O)cc1)NC(=O)[C@@H](NC(=O)[C@H](CO)NC(=O)[C@H](Cc1ccc(O)cc1)NC(=O)[C@H](CC(=O)O)NC(=O)[C@H](CO)NC(=O)[C@@H](NC(=O)[C@H](Cc1ccccc1)NC(=O)[C@@H](NC(=O)CNC(=O)[C@H](CCC(N)=O)NC(=O)C(C)(C)NC(=O)[C@@H](N)Cc1ccc(O)cc1)[C@@H](C)O)[C@@H](C)O)[C@@H](C)CC)C(=O)N[C@@H](CCCCN)C(=O)N[C@@H](C)C(=O)N[C@@H](C)C(=O)N[C@@H](CCCCN)C(=O)N[C@@H](CCC(=O)O)C(=O)N[C@@H](Cc1ccccc1)C(=O)N[C@H](C(=O)N[C@@H](CCC(=O)O)C(=O)N[C@@H](Cc1c[nH]c2ccccc12)C(=O)N[C@@H](CC(C)C)C(=O)N[C@@H](CC(C)C)C(=O)N[C@@H](CO)C(=O)N[C@@H](C)C(N)=O)C(C)C)C(=O)O [Compound 24] (HELM PEPTIDE1{Y.[Aib].Q.G.T.F.T.S.D.Y.S.I.Y.L.E.K.K.A.A.K.E.F.V.E.W.L.L.S.A.[am]}|PEPTIDE2{[CCCCCCCCCCCCCCCC(=O)[*:2]].[gGlu]}$PEPTIDE1,PEPTIDE2,16:R3-2:R2$$$V2.0)
- EC50 (human GIP R; Table 2, average EC50, cAMP): 0.1 nM
- EC50 (human GIP R; Table 2b (most comprehensive data), average EC50, cAMP): 0.1 nM
- EC50 (human GCG R): 0.28 nM
- EC50 (human GLP-1 R; Table 2): 0.091 nM
- EC50 (human GLP-1 R; Table 2b (most comprehensive data)): 0.091 nM

Molecule: H-YSQGTFTSDYSKYLDSKAAHDFVEWLLRA-NH2 [Compound 1]
- EC50 (cAMP induction) (human glucagon receptor [1]): 0.013 nM
- EC50 (cAMP induction) (human GIP receptor [2]): 0.38 nM
- EC50 (cAMP induction) [3]: 0.033 nM
- EC50 (cAMP induction) (human glucagon receptor [4]): 0.013 nM
- EC50 (cAMP induction) (human GIP receptor [5]): 0.033 nM
- EC50 (cAMP induction) [6]: 0.013 nM

Molecule: H-Y[Aib]QGTFTSDYSIALEKK([Peg3-Peg3-γGlu-Stearoyl])AQRAFVEWLLAQK-NH2 [Compound 46]
- EC50 (cAMP induction) (human glucagon receptor [4]): 0.13 nM
- EC50 (cAMP induction) (human GIP receptor [5]): 0.011 nM
- EC50 (cAMP induction) [6]: 0.16 nM

Molecule: H-Y[Aib]QGTFTSDYSKYLDSK([γGlu-Palmitoyl])AAHDFVEWLLSA-NH2 [Compound 2]
- EC50 (cAMP induction) (human glucagon receptor [1]): 0.046 nM
- EC50 (cAMP induction) (human GIP receptor [2]): 0.35 nM
- EC50 (cAMP induction) [3]: 0.089 nM
- EC50 (cAMP induction) (human glucagon receptor [4]): 0.046 nM
- EC50 (cAMP induction) (human GIP receptor [5]): 0.089 nM
- EC50 (cAMP induction) [6]: 0.046 nM

B1: Compound 7 (peptide)
peptide: YAQGTFTSDYSKALDSKAAHDFVEWLLSA
HELM: PEPTIDE1{Y.[Aib].Q.G.T.F.T.S.D.Y.S.K.A.L.D.S.K.A.A.H.D.F.V.E.W.L.L.S.A.[am]}$$$$V2.0
SMILES: CC(C)C[C@H](NC(=O)[C@H](C)NC(=O)[C@H](CCCCN)NC(=O)[C@H](CO)NC(=O)[C@H](Cc1ccc(O)cc1)NC(=O)[C@H](CC(=O)O)NC(=O)[C@H](CO)NC(=O)[C@@H](NC(=O)[C@H](Cc1ccccc1)NC(=O)[C@@H](NC(=O)CNC(=O)[C@H](CCC(N)=O)NC(=O)C(C)(C)NC(=O)[C@@H](N)Cc1ccc(O)cc1)[C@@H](C)O)[C@@H](C)O)C(=O)N[C@@H](CC(=O)O)C(=O)N[C@@H](CO)C(=O)N[C@@H](CCCCN)C(=O)N[C@@H](C)C(=O)N[C@@H](C)C(=O)N[C@@H](Cc1c[nH]cn1)C(=O)N[C@@H](CC(=O)O)C(=O)N[C@@H](Cc1ccccc1)C(=O)N[C@H](C(=O)N[C@@H](CCC(=O)O)C(=O)N[C@@H](Cc1c[nH]c2ccccc12)C(=O)N[C@@H](CC(C)C)C(=O)N[C@@H](CC(C)C)C(=O)N[C@@H](CO)C(=O)N[C@@H](C)C(N)=O)C(C)C
- EC50 (cAMP induction) (human glucagon receptor [1]): 0.086 nM
- EC50 (cAMP induction) (human GIP receptor [2]): 0.42 nM
- EC50 (cAMP induction) [3]: 0.031 nM
- EC50 (cAMP induction) (human glucagon receptor [4]): 0.086 nM
- EC50 (cAMP induction) (human GIP receptor [5]): 0.031 nM
- EC50 (cAMP induction) [6]: 0.086 nM

B2: Compound 6 (peptide)
peptide: YAQGTFTSDYSKYLDSKAARDFVEWLLSA
HELM: PEPTIDE1{Y.[Aib].Q.G.T.F.T.S.D.Y.S.K.Y.L.D.S.K.A.A.R.D.F.V.E.W.L.L.S.A.[am]}$$$$V2.0
SMILES: CC(C)C[C@H](NC(=O)[C@H](CC(C)C)NC(=O)[C@H](Cc1c[nH]c2ccccc12)NC(=O)[C@H](CCC(=O)O)NC(=O)[C@@H](NC(=O)[C@H](Cc1ccccc1)NC(=O)[C@H](CC(=O)O)NC(=O)[C@H](CCCNC(=N)N)NC(=O)[C@H](C)NC(=O)[C@H](C)NC(=O)[C@H](CCCCN)NC(=O)[C@H](CO)NC(=O)[C@H](CC(=O)O)NC(=O)[C@H](CC(C)C)NC(=O)[C@H](Cc1ccc(O)cc1)NC(=O)[C@H](CCCCN)NC(=O)[C@H](CO)NC(=O)[C@H](Cc1ccc(O)cc1)NC(=O)[C@H](CC(=O)O)NC(=O)[C@H](CO)NC(=O)[C@@H](NC(=O)[C@H](Cc1ccccc1)NC(=O)[C@@H](NC(=O)CNC(=O)[C@H](CCC(N)=O)NC(=O)C(C)(C)NC(=O)[C@@H](N)Cc1ccc(O)cc1)[C@@H](C)O)[C@@H](C)O)C(C)C)C(=O)N[C@@H](CO)C(=O)N[C@@H](C)C(N)=O
- EC50 (cAMP induction) (human glucagon receptor [1]): 0.018 nM
- EC50 (cAMP induction) (human GIP receptor [2]): 0.34 nM
- EC50 (cAMP induction) [3]: 0.0095 nM
- EC50 (cAMP induction) (human glucagon receptor [4]): 0.018 nM
- EC50 (cAMP induction) (human GIP receptor [5]): 0.01 nM
- EC50 (cAMP induction) [6]: 0.018 nM

B3: Compound 3 (peptide)
peptide: YAQGTFTSDYSKYLDSKAAHDFVEWLLRA
HELM: PEPTIDE1{Y.[Aib].Q.G.T.F.T.S.D.Y.S.K.Y.L.D.S.K.A.A.H.D.F.V.E.W.L.L.R.A.[am]}$$$$V2.0
SMILES: CC(C)C[C@H](NC(=O)[C@H](CC(C)C)NC(=O)[C@H](Cc1c[nH]c2ccccc12)NC(=O)[C@H](CCC(=O)O)NC(=O)[C@@H](NC(=O)[C@H](Cc1ccccc1)NC(=O)[C@H](CC(=O)O)NC(=O)[C@H](Cc1c[nH]cn1)NC(=O)[C@H](C)NC(=O)[C@H](C)NC(=O)[C@H](CCCCN)NC(=O)[C@H](CO)NC(=O)[C@H](CC(=O)O)NC(=O)[C@H](CC(C)C)NC(=O)[C@H](Cc1ccc(O)cc1)NC(=O)[C@H](CCCCN)NC(=O)[C@H](CO)NC(=O)[C@H](Cc1ccc(O)cc1)NC(=O)[C@H](CC(=O)O)NC(=O)[C@H](CO)NC(=O)[C@@H](NC(=O)[C@H](Cc1ccccc1)NC(=O)[C@@H](NC(=O)CNC(=O)[C@H](CCC(N)=O)NC(=O)C(C)(C)NC(=O)[C@@H](N)Cc1ccc(O)cc1)[C@@H](C)O)[C@@H](C)O)C(C)C)C(=O)N[C@@H](CCCNC(=N)N)C(=O)N[C@@H](C)C(N)=O
- EC50 (cAMP induction) (human glucagon receptor [1]): 0.022 nM
- EC50 (cAMP induction) (human GIP receptor [2]): 0.13 nM
- EC50 (cAMP induction) [3]: 0.015 nM
- EC50 (cAMP induction) (human glucagon receptor [4]): 0.022 nM
- EC50 (cAMP induction) (human GIP receptor [5]): 0.015 nM
- EC50 (cAMP induction) [6]: 0.022 nM

B4: Compound 5 (peptide)
peptide: YAQGTFTSDYSIYLDSKAAHDFVEWLLSA
HELM: PEPTIDE1{Y.[Aib].Q.G.T.F.T.S.D.Y.S.I.Y.L.D.S.K.A.A.H.D.F.V.E.W.L.L.S.A.[am]}$$$$V2.0
SMILES: CC[C@H](C)[C@H](NC(=O)[C@H](CO)NC(=O)[C@H](Cc1ccc(O)cc1)NC(=O)[C@H](CC(=O)O)NC(=O)[C@H](CO)NC(=O)[C@@H](NC(=O)[C@H](Cc1ccccc1)NC(=O)[C@@H](NC(=O)CNC(=O)[C@H](CCC(N)=O)NC(=O)C(C)(C)NC(=O)[C@@H](N)Cc1ccc(O)cc1)[C@@H](C)O)[C@@H](C)O)C(=O)N[C@@H](Cc1ccc(O)cc1)C(=O)N[C@@H](CC(C)C)C(=O)N[C@@H](CC(=O)O)C(=O)N[C@@H](CO)C(=O)N[C@@H](CCCCN)C(=O)N[C@@H](C)C(=O)N[C@@H](C)C(=O)N[C@@H](Cc1c[nH]cn1)C(=O)N[C@@H](CC(=O)O)C(=O)N[C@@H](Cc1ccccc1)C(=O)N[C@H](C(=O)N[C@@H](CCC(=O)O)C(=O)N[C@@H](Cc1c[nH]c2ccccc12)C(=O)N[C@@H](CC(C)C)C(=O)N[C@@H](CC(C)C)C(=O)N[C@@H](CO)C(=O)N[C@@H](C)C(N)=O)C(C)C
- EC50 (cAMP induction) (human glucagon receptor [1]): 0.065 nM
- EC50 (cAMP induction) (human GIP receptor [2]): 0.17 nM
- EC50 (cAMP induction) [3]: 0.0092 nM
- EC50 (cAMP induction) (human glucagon receptor [4]): 0.065 nM
- EC50 (cAMP induction) (human GIP receptor [5]): 0.009 nM
- EC50 (cAMP induction) [6]: 0.065 nM
